The results in this text go back to publication PMC6101577.

This test concerns the target T1, recombinant human SFPQ/PSF (human), P23246.
T1 chain: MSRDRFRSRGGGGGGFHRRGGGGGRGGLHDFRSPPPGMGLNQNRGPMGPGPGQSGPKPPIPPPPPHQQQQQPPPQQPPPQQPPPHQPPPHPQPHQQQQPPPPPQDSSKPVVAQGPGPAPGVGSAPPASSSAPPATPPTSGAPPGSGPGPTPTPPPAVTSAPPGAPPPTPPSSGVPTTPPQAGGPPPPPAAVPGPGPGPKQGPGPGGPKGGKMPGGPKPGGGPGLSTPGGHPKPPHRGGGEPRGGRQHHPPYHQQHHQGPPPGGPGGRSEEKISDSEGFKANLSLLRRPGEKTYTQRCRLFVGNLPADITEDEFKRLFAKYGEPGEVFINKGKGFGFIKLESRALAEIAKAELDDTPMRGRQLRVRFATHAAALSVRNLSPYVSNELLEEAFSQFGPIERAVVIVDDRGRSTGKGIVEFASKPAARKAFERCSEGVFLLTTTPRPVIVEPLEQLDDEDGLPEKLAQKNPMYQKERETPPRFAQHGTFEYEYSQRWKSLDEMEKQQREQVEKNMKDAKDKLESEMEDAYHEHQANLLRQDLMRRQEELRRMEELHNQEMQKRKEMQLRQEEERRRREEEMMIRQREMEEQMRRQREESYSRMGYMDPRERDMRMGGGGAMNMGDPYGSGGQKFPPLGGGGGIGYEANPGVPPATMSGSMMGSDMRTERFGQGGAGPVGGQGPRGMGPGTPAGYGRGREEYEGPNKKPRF
In words: SEC. As to conditions: remark: other sources report otherwise.

B1: recombinant human SFPQ/PSF, P23246 1-707 (natural protein)
chain: MSRDRFRSRGGGGGGFHRRGGGGGRGGLHDFRSPPPGMGLNQNRGPMGPGPGQSGPKPPIPPPPPHQQQQQPPPQQPPPQQPPPHQPPPHPQPHQQQQPPPPPQDSSKPVVAQGPGPAPGVGSAPPASSSAPPATPPTSGAPPGSGPGPTPTPPPAVTSAPPGAPPPTPPSSGVPTTPPQAGGPPPPPAAVPGPGPGPKQGPGPGGPKGGKMPGGPKPGGGPGLSTPGGHPKPPHRGGGEPRGGRQHHPPYHQQHHQGPPPGGPGGRSEEKISDSEGFKANLSLLRRPGEKTYTQRCRLFVGNLPADITEDEFKRLFAKYGEPGEVFINKGKGFGFIKLESRALAEIAKAELDDTPMRGRQLRVRFATHAAALSVRNLSPYVSNELLEEAFSQFGPIERAVVIVDDRGRSTGKGIVEFASKPAARKAFERCSEGVFLLTTTPRPVIVEPLEQLDDEDGLPEKLAQKNPMYQKERETPPRFAQHGTFEYEYSQRWKSLDEMEKQQREQVEKNMKDAKDKLESEMEDAYHEHQANLLRQDLMRRQEELRRMEELHNQEMQKRKEMQLRQEEERRRREEEMMIRQREMEEQMRRQREESYSRMGYMDPRERDMRMGGGGAMNMGDPYGSGGQKFPPLGGGGGIGYEANPGVPPATMSGSMMGSDMRTERFGQGGAGPVGGQGPRGMGPGTPAGYGRGREEYEGPNKKPRF
Turning to B1, the stoichiometry N is 2.
